Test results published in patent US20240392004A1 (IMMUNOWAKE, published 2024).

T1: human TIGIT on HEK-Blue reporter cells (human, UniProt Q495A1 22-244)
T1 sequence (looked up): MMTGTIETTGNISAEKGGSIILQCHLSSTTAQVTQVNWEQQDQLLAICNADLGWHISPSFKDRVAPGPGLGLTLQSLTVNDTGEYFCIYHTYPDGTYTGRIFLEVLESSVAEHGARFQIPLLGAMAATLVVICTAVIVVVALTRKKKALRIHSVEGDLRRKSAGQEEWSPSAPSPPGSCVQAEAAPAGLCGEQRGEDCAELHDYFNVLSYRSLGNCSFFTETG

T2: IFN-γ receptor (IFNGR1 and IFNGR2) (UniProt P15260 18-489; P38484 22-337, limits assumed)
T2 sequence (looked up) 1: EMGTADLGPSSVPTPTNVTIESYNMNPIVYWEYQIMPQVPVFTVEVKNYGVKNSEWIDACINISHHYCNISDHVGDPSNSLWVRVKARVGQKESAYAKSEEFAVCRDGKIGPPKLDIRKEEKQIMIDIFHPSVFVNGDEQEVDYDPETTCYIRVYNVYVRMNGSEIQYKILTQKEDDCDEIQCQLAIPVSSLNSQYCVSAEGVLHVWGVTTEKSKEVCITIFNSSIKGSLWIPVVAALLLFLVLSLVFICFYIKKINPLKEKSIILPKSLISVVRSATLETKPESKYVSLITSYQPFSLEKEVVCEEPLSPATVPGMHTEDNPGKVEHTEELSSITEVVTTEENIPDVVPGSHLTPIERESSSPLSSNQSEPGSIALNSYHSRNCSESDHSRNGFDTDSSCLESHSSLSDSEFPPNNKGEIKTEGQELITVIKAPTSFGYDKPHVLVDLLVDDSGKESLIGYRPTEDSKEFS
T2 sequence (looked up) 2: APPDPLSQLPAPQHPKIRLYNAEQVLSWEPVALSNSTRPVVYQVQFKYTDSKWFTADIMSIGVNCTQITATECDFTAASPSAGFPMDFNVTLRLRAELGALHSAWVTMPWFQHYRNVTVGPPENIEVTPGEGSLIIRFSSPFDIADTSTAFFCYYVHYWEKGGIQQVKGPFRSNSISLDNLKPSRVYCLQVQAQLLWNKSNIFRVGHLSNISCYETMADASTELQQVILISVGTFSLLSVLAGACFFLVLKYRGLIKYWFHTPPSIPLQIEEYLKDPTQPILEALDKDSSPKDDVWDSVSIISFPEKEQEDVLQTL


Key:
Test in all cases: cell-based or functional assay
[1] = biological target: human IL-12 receptor complex (IL-12Rβ1 and IL-12Rβ2) (human, UniProt P42701 24-662; Q99665 24-862)
Sequence of human IL-12 receptor complex (IL-12Rβ1 and IL-12Rβ2) (Q99665 24-862, chain 2 of 2, other chains not shown): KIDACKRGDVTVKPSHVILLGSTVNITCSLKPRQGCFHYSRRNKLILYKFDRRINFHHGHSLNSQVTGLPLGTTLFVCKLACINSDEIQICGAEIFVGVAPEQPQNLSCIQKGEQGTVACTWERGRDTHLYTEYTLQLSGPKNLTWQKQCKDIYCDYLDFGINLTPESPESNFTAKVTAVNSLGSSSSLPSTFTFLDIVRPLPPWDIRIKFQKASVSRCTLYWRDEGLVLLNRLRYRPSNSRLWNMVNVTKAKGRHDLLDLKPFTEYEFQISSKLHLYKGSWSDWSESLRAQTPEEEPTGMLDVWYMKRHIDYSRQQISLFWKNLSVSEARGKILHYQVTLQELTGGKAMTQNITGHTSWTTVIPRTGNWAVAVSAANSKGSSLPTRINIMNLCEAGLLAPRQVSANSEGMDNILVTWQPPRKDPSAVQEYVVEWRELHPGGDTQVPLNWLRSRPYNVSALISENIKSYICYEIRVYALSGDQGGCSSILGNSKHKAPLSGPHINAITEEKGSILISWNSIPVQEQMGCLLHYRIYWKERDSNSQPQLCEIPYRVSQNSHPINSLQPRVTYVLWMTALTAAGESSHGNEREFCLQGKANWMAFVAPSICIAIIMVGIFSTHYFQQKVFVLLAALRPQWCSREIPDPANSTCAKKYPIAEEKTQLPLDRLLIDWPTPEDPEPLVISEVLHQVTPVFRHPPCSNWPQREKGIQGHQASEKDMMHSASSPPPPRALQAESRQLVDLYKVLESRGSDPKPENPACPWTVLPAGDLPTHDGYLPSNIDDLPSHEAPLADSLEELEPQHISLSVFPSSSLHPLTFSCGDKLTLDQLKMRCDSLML

[2] = biological target: T1, human TIGIT on HEK-Blue reporter cells
[3] = biological target: T2, IFN-γ receptor (IFNGR1 and IFNGR2)

IL-12 signal transduction, HEK-IL-12 [1] [%] | IL-12 signal transduction, HEK-IL-12-TIGIT [2] [%] | IFN-γ signal transduction, HEK-IFN-γ [3] [%] | Binder
< 0.2 | 40 | < 0.2 | IL-12(E59A/F60A)/IFN-γ(A23V/A23V)/CD155-Fc (Fc fusion) chain 1: WPPPGTGDVVVQAPTQVPGFLGDSVTLPCYLQVPNMEVTHVSQLTWARHGESGSMAVFHQTQGPSYSESKRLEFVAARLGAELRNASLRMFGLRVEDEGNYTCLFVTFPQGSRSVDIWLRVLAKPQNTAEVQKVQLTGEPVPMARCVSTGGRPPAQITWHSDLGGMPNTSQVPGFLSGTVTVTSLWILVPSSQVDGKNVTCKVEHESFEKPQLLTVNLTVYYPPEVSISGYDNNWYLGQNEATLTCDARSNPEPTGYNWSTTMGPLPPFAVAQGAQLLIRPVDKPINTTLICNVTNALGARQAELTVQVKEGPPSEHSGISRNGGGGSGGGIWELKKDVYVVELDWYPDAPGEMVVLTCDTPEEDGITWTLDQSSEVLGSGKTLTIQVKAAGDAGQYTCHKGGEVLSHSLLLLHKKEDGIWSTDILKDQKEPKNKTFLRCEAKNYSGRFTCWWLTTISTDLTFSVKSSRGSSDPQGVTCGAATLSAERVRGDNKEYEYSVECQEDSACPAAEESLPIEVMVDAVHKLKYENYTSSFFIRDIIKPDPPKNLQLKPLKNSRQVEVSWEYPDTWSTPHSYFSLTFCVQVQGKSKREKKDRVFTDKTSATVICRKNASISVRAQDRYYSSSWSEWASVPCSGGGGSGGGSGGGGSRNLPVATPDPGMFPCLHHSQNLLRAVSNMLQKARQTLEFYPCTSEEIDHEDITKDKTSTVEACLPLELTKNESCLNSRETSFITNGSCLASRKTSFMMALCLSSIYEDLKMYQVEFKTMNAKLLMDPKRQIFLDQNMLAVIDELMQALNFNSETVPQKSSLEEPDFYKTKIKLCILLHAFRIRAVTIDRVMSYLNASGGGGSGGGDKTHTCPPCPAPEDEGGPSVFLFPPKPKDTLMISRTPEVTCVVVDVSHEDPEVKFNWYVDGVEVHNAKTKPREEQYNSTYRVVSVLTVLHQDWLNGKEYKCKVSNKALPAPIEKTISKAKGQPREPQVYVYPPSREEMTKNQVSLTCLVKGFYPSDIAVEWESNGQPENNYKTTPPVLDEDGSFALVSKLTVDKSRWQQGNVFSCSVMHEALHNHYTQKSLSLSPGK chain 2: WPPPGTGDVVVQAPTQVPGFLGDSVTLPCYLQVPNMEVTHVSQLTWARHGESGSMAVFHQTQGPSYSESKRLEFVAARLGAELRNASLRMFGLRVEDEGNYTCLFVTFPQGSRSVDIWLRVLAKPQNTAEVQKVQLTGEPVPMARCVSTGGRPPAQITWHSDLGGMPNTSQVPGFLSGTVTVTSLWILVPSSQVDGKNVTCKVEHESFEKPQLLTVNLTVYYPPEVSISGYDNNWYLGQNEATLTCDARSNPEPTGYNWSTTMGPLPPFAVAQGAQLLIRPVDKPINTTLICNVTNALGARQAELTVQVKEGPPSEHSGISRNGGGSGQDPYVKEAENLKKYFNAGHSDVVDNGTLFLGILKNWKEESDRKIMQSQIVSFYFKLFKNFKDDQSIQKSVETIKEDMNVKFFNSNKKKRDDFEKLTNYSVTDLNVQRKAIHELIQVMAELSPAAKTGKRKRSQMLFRGGGGSGGGGSGGGGSGGGGSQDPYVKEAENLKKYFNAGHSDVVDNGTLFLGILKNWKEESDRKIMQSQIVSFYFKLFKNFKDDQSIQKSVETIKEDMNVKFFNSNKKKRDDFEKLTNYSVTDLNVQRKAIHELIQVMAELSPAAKTGKRKRSQMLFRGGGGGSGGGDKTHTCPPCPAPEKKGGPSVFLFPPKPKDTLMISRTPEVTCVVVDVSHEDPEVKFNWYVDGVEVHNAKTKPREEQYNSTYRVVSVLTVLHQDWLNGKEYKCKVSNKALPAPIEKTISKAKGQPREPQVYVLPPSREEMTKNQVSLLCLVKGFYPSDIAVEWESNGQPENRYMTWPPVLDSDGSFFLYSKLTVDKSRWQQGNVFSCSVMHEALHNHYTQKSLSLSPGK
2 | 60 | < 0.2 | IFN-γ(A23V/A23V)/CD155-Fc/IL-12(E59A/F60A) (Fc fusion) chain 1: WPPPGTGDVVVQAPTQVPGFLGDSVTLPCYLQVPNMEVTHVSQLTWARHGESGSMAVFHQTQGPSYSESKRLEFVAARLGAELRNASLRMFGLRVEDEGNYTCLFVTFPQGSRSVDIWLRVLAKPQNTAEVQKVQLTGEPVPMARCVSTGGRPPAQITWHSDLGGMPNTSQVPGFLSGTVTVTSLWILVPSSQVDGKNVTCKVEHESFEKPQLLTVNLTVYYPPEVSISGYDNNWYLGQNEATLTCDARSNPEPTGYNWSTTMGPLPPFAVAQGAQLLIRPVDKPINTTLICNVTNALGARQAELTVQVKEGPPSEHSGISRNGGGGSGGGDKTHTCPPCPAPEDEGGPSVFLFPPKPKDTLMISRTPEVTCVVVDVSHEDPEVKFNWYVDGVEVHNAKTKPREEQYNSTYRVVSVLTVLHQDWLNGKEYKCKVSNKALPAPIEKTISKAKGQPREPQVYVYPPSREEMTKNQVSLTCLVKGFYPSDIAVEWESNGQPENNYKTTPPVLDEDGSFALVSKLTVDKSRWQQGNVFSCSVMHEALHNHYTQKSLSLSPGKGGGGSGGGIWELKKDVYVVELDWYPDAPGEMVVLTCDTPEEDGITWTLDQSSEVLGSGKTLTIQVKAAGDAGQYTCHKGGEVLSHSLLLLHKKEDGIWSTDILKDQKEPKNKTFLRCEAKNYSGRFTCWWLTTISTDLTFSVKSSRGSSDPQGVTCGAATLSAERVRGDNKEYEYSVECQEDSACPAAEESLPIEVMVDAVHKLKYENYTSSFFIRDIIKPDPPKNLQLKPLKNSRQVEVSWEYPDTWSTPHSYFSLTFCVQVQGKSKREKKDRVFTDKTSATVICRKNASISVRAQDRYYSSSWSEWASVPCSGGGGSGGGSGGGGSRNLPVATPDPGMFPCLHHSQNLLRAVSNMLQKARQTLEFYPCTSEEIDHEDITKDKTSTVEACLPLELTKNESCLNSRETSFITNGSCLASRKTSFMMALCLSSIYEDLKMYQVEFKTMNAKLLMDPKRQIFLDQNMLAVIDELMQALNFNSETVPQKSSLEEPDFYKTKIKLCILLHAFRIRAVTIDRVMSYLNAS chain 2: WPPPGTGDVVVQAPTQVPGFLGDSVTLPCYLQVPNMEVTHVSQLTWARHGESGSMAVFHQTQGPSYSESKRLEFVAARLGAELRNASLRMFGLRVEDEGNYTCLFVTFPQGSRSVDIWLRVLAKPQNTAEVQKVQLTGEPVPMARCVSTGGRPPAQITWHSDLGGMPNTSQVPGFLSGTVTVTSLWILVPSSQVDGKNVTCKVEHESFEKPQLLTVNLTVYYPPEVSISGYDNNWYLGQNEATLTCDARSNPEPTGYNWSTTMGPLPPFAVAQGAQLLIRPVDKPINTTLICNVTNALGARQAELTVQVKEGPPSEHSGISRNGGGSGQDPYVKEAENLKKYFNAGHSDVVDNGTLFLGILKNWKEESDRKIMQSQIVSFYFKLFKNFKDDQSIQKSVETIKEDMNVKFFNSNKKKRDDFEKLTNYSVTDLNVQRKAIHELIQVMAELSPAAKTGKRKRSQMLFRGGGGSGGGGSGGGGSGGGGSQDPYVKEAENLKKYFNAGHSDVVDNGTLFLGILKNWKEESDRKIMQSQIVSFYFKLFKNFKDDQSIQKSVETIKEDMNVKFFNSNKKKRDDFEKLTNYSVTDLNVQRKAIHELIQVMAELSPAAKTGKRKRSQMLFRGGGGGSGGGDKTHTCPPCPAPEKKGGPSVFLFPPKPKDTLMISRTPEVTCVVVDVSHEDPEVKFNWYVDGVEVHNAKTKPREEQYNSTYRVVSVLTVLHQDWLNGKEYKCKVSNKALPAPIEKTISKAKGQPREPQVYVLPPSREEMTKNQVSLLCLVKGFYPSDIAVEWESNGQPENRYMTWPPVLDSDGSFFLYSKLTVDKSRWQQGNVFSCSVMHEALHNHYTQKSLSLSPGK
